Assay results from patent US7825091B2, “Modification of feeding behaviour” (Imperial Innovations Limited, priority 2003, dated 2010).

Columns and labels:
[1] = ICV injection, food intake in 24-h fasted rats (studies 1a, 2a); assay type: in vivo, rat; conditions: ICV 3 nmol, vs saline
Text: (§1) Animals were handled daily after recovery from surgery until completion of the studies.
(§2) Animals had permanent stainless steel guide cannulas (Plastics One, Roanoke, Va.) stereotactically implanted ICV (intracerebraventricularly) or iPVN (into the hypothalamic paraventricular nucleus).

[2] = iPVN injection, food intake in 24-h fasted rats (studies 1b, 2b); assay type: in vivo, rat; conditions: iPVN 1 nmol, any time point
Protocol: as §1, §2
Therefore, exendin-4 was injected iPVN at a dose of 0.03 nmol.

B1: glicentin (peptide, UniProt P01275 21-89, looked up)
Glicentin: RSLQDTEEKSRSFSASQADPLSDPDQMNEDKRHSQGTFTSDYSKYLDSRRAQDFVQWLMNTKRNRNNIA
modifications: Glicentin
notes: proglucagon-derived peptide purchased from Peninsula Laboratories
With B1 the “food intake (refeeding) after ICV injection” value [1] was “failed to affect food intake at any time point” and the “food intake after iPVN injection” value [2] was “failed to affect food intake at any time point”.
